Measurements as given in patent US20060073572A1, “Cytokine structurally related to IL-17” (The Johns Hopkins University, priority 2001, published 2006).
“Also recorded” adds a separate entry of the source.

What was measured:
Format in all cases: cell-based, human
[1] = tested on: IL-6; test: IL-6 expression in PBECs (ELISA, RT-PCR); details: ML-1 10 and 100 ng/ml, 24 and 48 hours, ELISA
Method: (§1) FIG. 5. Analysis of IL-6 (FIG. 5A) and IL-8 (FIG. 5B) expression in primary bronchial epithelial cells (PBECs) and human umbilical vein endothelial cells (HUVECs) stimulated by ML-1. The IL-6 and IL-8 protein release in the supernatant was determined by ELISA as described in Example 8. The results were expressed as mean+SD (n=6). *p<0.05 was considered significant vs control.
(§2) FIG. 7A-7D. Effect of PD98059 on IL-6 (FIG. 7A) and IL-8 (FIG. 7B) protein production in PBECs and HUVECs. The cells were preincubated with varying concentrations of PD98059, SB202190, or DMSO vehicle control for 1 hour, followed by stimulation with ML-1 (100 ng/ml) for 24 hours. The results are expressed as the mean+SD (n=6). *P<0.05 when compared to cultures without the addition of PD98059. FIGS. 7C and 7D. Semi-quantitative analysis of gene expression for IL-6 (FIG. 7C) and IL-8 (FIG. 7D) by RT-PCR. The cells were preincubated as described above and treated with ML-1 for 4 hours. RT-PCR was performed as described in Example 8. The results shown are representative of three separate experiments.
Primary bronchial epithelial cells (PBECs) were purchased from Clonetics (San Diego, Calif.) and cultured in bronchial epithelial basal medium (Clonetics) containing 0.5 ng/ml human recombinant epidermal growth factor (EGF), 52 mg/ml bovine pituitary extract, 0.1 mg/ml retinoic acid, 0.5 mg/ml hydrocortisone, 5 mg/ml insulin, 10 mg/ml transferrin, 0.5 mg/ml epinephrine, 6.5 ng/ml triiodothyronine, […] gentamicin, and 50 pg/ml amphotericin-B (Clonetics). […]
(§3) The amplification reaction was performed for 23 cycles with denaturation at 94° C. for 45 seconds, annealing at 56° C. for 45 seconds, and extension at 72° C. for 45 seconds. PCR products were detected by ethidium bromide staining and normalized by the intensity of an amplified housekeeping gene, G3PDH (see above). […] IL-6 and IL-8 protein levels in the collected supernatants were determined with a commercially available ELISA kit (Biosource, Camarillo, Calif.) according to the manufacturer's instructions.

[2] = tested on: IL-8; test: IL-8 expression in HUVECs (ELISA, RT-PCR); details: ML-1 10 and 100 ng/ml, 24 and 48 hours, ELISA
Method: as §1, §2
Human umbilical vein endothelial cells (HUVECs) were obtained from Clonetics and cultured in endothelial cell growth media (EGM; Clonetics) containing 12 μg/ml bovine brain extract, 10 ng/ml EGF, 1 μg/ml hydrocortisone, 50 μg/ml gentimicin, 50 ng/ml amphotericin B, and 5% FBS amphotericin-B (Clonetics).
PBECs and HUVECs were treated with ML-1 100 ng/ml of ML-1 for various time points. Total RNA was extracted using RNeasy (Qiagen) from 1×10^6 cells 4 hours after stimulation or exchange of media. […]
as §3

[3] = tested on: ERK1/2; test: Western blotting of ERK1/2 phosphorylation in PBECs; details: ML-1 100 ng/ml
Method: (§4) FIGS. 6A-6D. Kinetic activation of ERK1/2 by ML-1 in PBECs (FIG. 6A) and HUVECs (FIG. 6B). The cells were incubated with or without ML-1 (100 ng/ml) for different time points as indicated. Western blotting analysis was performed by using antibodies against different MAP kinases as described in Example 8. FIGS. 6C and 6D. Effect of PD98059 on ML-1-induced phosphorylation of ERK1/2 in PBECs (FIG. 6C) and HUVECs (FIG. 6D). The cells were preincubated with PD98059 ([…]) or DMSO vehicle control for 1 hour, followed by stimulation of PBECs and HUVECs with medium or ML-1 for 20 minutes or 10 minutes, respectively. The results shown are representative of three separate experiments.
(§5) For analysis of activation of MAP kinases, PBECs were treated with IL-17 (100 ng/ml) for various time periods, with or without the MEK 1/2 inhibitor PD98059 ([…]; Calbiochem, La Jolla, Calif.) (15), the p38 inhibitor SB202190 (0.5-10 μM; ref. 16), or a vehicle control, DMSO (Me2SO) for 1 hour. […] Following the treatment, the cells were washed with ice-cold PBS. Cell pellets were immediately lysed in cold lysis buffer [20 mM Tris (pH 7.4), 4 mM EDTA, 2 mM EGTA, 1 mM PMSF, […] aprotinin, 200 mg/ml leupeptin, 50 mM NaF, 5 mM NaRP2O7, 1 mM Na3VO4, and 1% Nonidet P40; all purchased from Sigma]. Extracts (1×10^6 cell equivalents/lane) were suspended with an equal volume of 2× loading buffer [0.1 M Tris-HCl (pH 6.8)], 4% SDS, 0.005% bromophenol blue, and 20% glycerol) containing 2-ME (0.7 M) and subjected to 4-20% Tris-glycine gel electrophoresis (NOVEX, San Diego, Calif.). Gels were then transferred to PVDF membranes (BIO-RAD, Hercules, Calif.) with a Trans Blot apparatus (NOVEX). The membranes were immersed overnight in This-buffered saline/Tween 20 containing 5% nonfat dry skim milk (Carnation, Los Angeles, Calif.).
(§6) Immunoreactive proteins were detected using antibodies against various kinases and phosphorylated kinases. […] Western blotting detection reagents (Amersham) and Hyper ECL luminescence detection film (Amersham) were used. […]

[4] = tested on: ERK1/2; test: Western blotting of ERK1/2 phosphorylation in HUVECs; details: ML-1 100 ng/ml
Method: as §4, §5, §6

[5] = tested on: p38; test: Western blotting of p38 activation in ML-1-stimulated cells; details: any time point, FIG. 6A (PBECs)
Method: as §4
For analysis of activation of MAP kinases, PBECs were treated with IL-17 (100 ng/ml) for various time periods, with or without the MEK 1/2 inhibitor PD98059 ([…]; Calbiochem, La Jolla, Calif.) (15), the p38 inhibitor SB202190 (0.5-10 μM; ref. 16), or a vehicle control, DMSO (Me2SO) for 1 hour. […] Following the treatment, the cells were washed with ice-cold PBS. […]
as §6

B1: ML-1: new member of the IL-17 cytokine family, SEQ ID NO:2; His-tagged recombinant protein expressed in COS-7 cells and affinity purified (protein, listed as Homo sapiens)
chain: MKLDIGIINENQRVSMSRNIESRSTSPWNYTVTWDPNRYPSEVVQAQCRNLGCINAQGKEDISMNSVPIQQETLVVRRKHQGCSVSFQLEKVLVTVGCTCVTPVIHHVQ
modifications: His tag
With B1 the IL-6 production [1] was “time-dependent increase; also recorded: significantly induced”, the IL-8 production [2] was “time-dependent increase; also recorded: significantly induced” and the “time of maximum phosphorylation of ERK1/2” value [3] was 20 min. The “time of return of ERK1/2 phosphorylation to baseline levels” value [3] was no more than 60 min, the “time of maximum phosphorylation of ERK1/2” value [4] was 10 min and the “time of return of ERK1/2 phosphorylation to baseline levels” value [4] was no more than 60 min. The “activation of p38 kinase” value [5] was “No activation”.
